From paper PMC3627599

Tests used:
[1] = molecular target: T1, MAZ (Homo sapiens (pGEX-hMAZ), UniProt P56270 1-477); experiment: double-filter binding
T1 sequence: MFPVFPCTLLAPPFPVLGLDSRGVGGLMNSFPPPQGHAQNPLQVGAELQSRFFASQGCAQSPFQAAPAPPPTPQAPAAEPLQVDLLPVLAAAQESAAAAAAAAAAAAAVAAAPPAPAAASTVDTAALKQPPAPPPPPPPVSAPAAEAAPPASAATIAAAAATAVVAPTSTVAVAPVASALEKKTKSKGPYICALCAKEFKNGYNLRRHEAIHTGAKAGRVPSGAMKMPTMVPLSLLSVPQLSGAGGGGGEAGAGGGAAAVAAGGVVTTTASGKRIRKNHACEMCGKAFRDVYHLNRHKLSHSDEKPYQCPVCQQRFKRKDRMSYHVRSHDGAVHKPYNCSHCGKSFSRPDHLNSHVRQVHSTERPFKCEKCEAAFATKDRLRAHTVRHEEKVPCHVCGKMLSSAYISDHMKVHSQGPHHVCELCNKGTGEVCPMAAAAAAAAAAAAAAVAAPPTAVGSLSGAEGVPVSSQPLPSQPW

[2] = molecular target: T1, MAZ; experiment: competition

Binder | Kd [1] | binding result [2]
GCGGTGTGGGAAGAGGGAAGAGGGGGAGGCAG (structured_DNA) [32R-3n] | 320 ± 2 nM | 
GCGGTGTGGGAAGAGGGAAGAGGGGGAGGCAG (XNA, AMANY inserted after G10 and after A21; 2 LNA at 3' end) [3044] |  | binds
